Test in all cases: AUC
For experiment [1], the target named is SODA_(BSn5), C-terminal SODA domain of SOD_(BSn5) (Bacillus subtilis BSn5).
Experiment [2] deals with SODA_(NG2215), NTD-deleted form of SOD_(NG2215) (SODA functional domain) (Geobacillus thermodenitrificans NG80-2).
Experiment [3] addresses SOD_(BSn5), Fe/Mn superoxide dismutase from Bacillus subtilis BSn5 (Bacillus subtilis BSn5).
Experiment [4] concerns the target SOD_(NG2215), Fe/Mn superoxide dismutase (cambialistic SOD) from Geobacillus thermodenitrificans NG80-2 (Geobacillus thermodenitrificans NG80-2).

The term stoichiometry N denotes a count of units in the complex or per binding partner.

Take “SODA_(BSn5), C-terminal SODA domain of SOD_(BSn5) (domain or fragment)”: the stoichiometry N in experiment [1] turned out to be 2.

Substance “SODA_(NG2215), NTD-deleted form of SOD_(NG2215) (SODA functional domain) (domain or fragment)” returned a stoichiometry N in experiment [2] of 4.

In experiment [3], “SOD_(BSn5), Fe/Mn superoxide dismutase from Bacillus subtilis BSn5 (enzyme)” came in with a stoichiometry N of 2.

“SOD_(NG2215), Fe/Mn superoxide dismutase (cambialistic SOD) from Geobacillus thermodenitrificans NG80-2 (enzyme)” yielded a stoichiometry N in experiment [4] of 4.
